Data set [1] has as its target T1, purified recombinant full-length RBEL1A (UniProt Q3YEC7-1 1-729, purification (1): glycosylated (larger molecular mass); purification (2): unglycosylated or less glycosylated).
T1 construct: RBEL1A, Ras superfamily GTPase, full length; also called recombinant RBEL1A; RBEL1A (1); source: purified recombinant protein
T1 sequence (looked up): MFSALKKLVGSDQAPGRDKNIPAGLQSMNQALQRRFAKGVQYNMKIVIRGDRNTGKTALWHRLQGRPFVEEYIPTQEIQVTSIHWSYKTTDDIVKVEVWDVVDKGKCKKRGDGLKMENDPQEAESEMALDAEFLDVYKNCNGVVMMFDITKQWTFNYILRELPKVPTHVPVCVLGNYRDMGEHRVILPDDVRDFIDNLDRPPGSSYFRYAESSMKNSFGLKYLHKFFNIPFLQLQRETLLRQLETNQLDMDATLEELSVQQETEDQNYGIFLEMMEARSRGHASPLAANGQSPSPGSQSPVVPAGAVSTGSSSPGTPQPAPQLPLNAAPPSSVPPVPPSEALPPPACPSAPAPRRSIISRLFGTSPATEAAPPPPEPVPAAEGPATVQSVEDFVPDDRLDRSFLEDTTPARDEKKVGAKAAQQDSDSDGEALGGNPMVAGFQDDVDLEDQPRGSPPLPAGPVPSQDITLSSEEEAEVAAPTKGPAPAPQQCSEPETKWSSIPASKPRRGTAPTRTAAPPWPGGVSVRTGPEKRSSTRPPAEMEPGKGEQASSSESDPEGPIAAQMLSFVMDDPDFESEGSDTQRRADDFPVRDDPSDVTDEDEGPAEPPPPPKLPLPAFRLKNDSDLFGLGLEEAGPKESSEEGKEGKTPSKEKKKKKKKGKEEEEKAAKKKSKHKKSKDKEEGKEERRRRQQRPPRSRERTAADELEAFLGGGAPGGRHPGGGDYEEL
Kind of data set: cross-linking; purified p53 (315-360) incubated with purified RBEL1A or BSA (1:1 or 2:1 molar ratio) 1 hour at 4 C, then glutaraldehyde 5 minutes at 4 C; SDS-PAGE, anti-p53 (FL-393) blot. The settings on record: both partners purified.

Data set [2] deals with the molecule itself. The data set is described as above.

This is an account of results in paper PMC4575918, “Regulation of p53 oligomerization by Ras superfamily protein RBEL1A” (Genes & Cancer, 2015).

B1: purified recombinant p53 tetramerization domain (residues 315-360) (domain or fragment, UniProt P04637 315-360, looked up)
chain: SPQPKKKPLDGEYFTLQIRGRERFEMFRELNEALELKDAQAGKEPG
notes: p53 tumor suppressor, residues 315-360 (tetramerization domain); also called p53-Oligo-D; recombinant p53 (315-360); source: purified recombinant polypeptide
As for B1, the binding result in data set [1] was “binds”. Also, the stoichiometry N (commonly a count of units in the complex or per binding partner) in data set [2] came out at 4.
